The record followed here is paper PMC3936775, “Differential contribution of basic residues to HIV-1 nucleocapsid protein’s nucleic acid chaperone function and retroviral replication”.

In data set [1] the target is HIV-1 NC WT (HIV-1 (NL4-3 isolate)) (UniProt P12493). Briefly: fluorescence anisotropy. The conditions noted are these: FA: 20 mM HEPES pH 7.5, 50 mM NaCl, 10 uM TCEP, 5 mM beta-mercaptoethanol, 1 uM zinc acetate, 20 C, 30 min; 20 nM micro-TAR RNA or 10 nM (TG)4 DNA (Table …).
Data set [2] deals with HIV-1 NC WT (HIV-1 (NL4-3 isolate), UniProt P12493 378-432). In words: fluorescence anisotropy; 1 uM zinc acetate; FA: 20 mM HEPES pH 7.5, 50 mM NaCl, 10 uM TCEP, 5 mM beta-mercaptoethanol, 1 uM zinc acetate, 20 C, 30 min; 20 nM micro-TAR RNA or 10 nM (TG)4 DNA (Table 1 footnote: room temperature). Conditions: protein: recombinant; label: 5' carboxyfluorescein (FAM); single strand. For orientation: Fluorescence polarisation rises when a labelled molecule tumbles more slowly, as on binding a larger partner.

As a reminder, the Kd is the free concentration of one partner at which half of the binding sites on the other are occupied at equilibrium, for simple one-to-one binding.

micro-TAR RNA 18-mer returned an equilibrium dissociation constant (Kd) in data set [1] of 315 nM. TGTGTGTG (ssDNA) [(TG)4 DNA]: the Kd in data set [2] turned out to be 5 ± 1 nM.
